In the assay the target is p.Arg127Gln GPIbα (amino acids Met1-Glu301) (human) (UniProt P07359). The assay can be described thus: SPR. For orientation: SPR reads the build-up and loss of mass on a sensor chip optically.

pKd: −log10 of the molar value.

The pKd is −log10 of the Kd, conventionally taken in molar units. A high value points to a small Kd.

Sequence of UniProt P07359 (P07359 17-301 R127Q): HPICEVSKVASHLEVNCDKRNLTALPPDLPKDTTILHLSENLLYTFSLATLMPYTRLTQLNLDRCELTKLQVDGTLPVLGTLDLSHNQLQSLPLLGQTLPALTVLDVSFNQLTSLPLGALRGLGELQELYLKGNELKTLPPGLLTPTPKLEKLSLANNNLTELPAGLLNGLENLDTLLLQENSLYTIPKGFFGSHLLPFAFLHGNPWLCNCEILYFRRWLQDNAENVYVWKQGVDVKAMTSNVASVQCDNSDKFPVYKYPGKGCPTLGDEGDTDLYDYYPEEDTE

In turn, VWF A1 domain (domain or fragment) showed a pKd of 5.69.

The record behind these values is PMC9006298.
